Publication PMC3561105, “A Quartet of PIF bHLH Factors Provides a Transcriptionally Centered Signaling Hub That Regulates Seedling Morphogenesis through Differential Expression-Patterning of Shared Target Genes in Arabidopsis”
Substitutions are numbered along the chain they refer to.

T1: GST-PIF3-Flag (Arabidopsis thaliana, UniProt O80536 1-524)
T1 sequence: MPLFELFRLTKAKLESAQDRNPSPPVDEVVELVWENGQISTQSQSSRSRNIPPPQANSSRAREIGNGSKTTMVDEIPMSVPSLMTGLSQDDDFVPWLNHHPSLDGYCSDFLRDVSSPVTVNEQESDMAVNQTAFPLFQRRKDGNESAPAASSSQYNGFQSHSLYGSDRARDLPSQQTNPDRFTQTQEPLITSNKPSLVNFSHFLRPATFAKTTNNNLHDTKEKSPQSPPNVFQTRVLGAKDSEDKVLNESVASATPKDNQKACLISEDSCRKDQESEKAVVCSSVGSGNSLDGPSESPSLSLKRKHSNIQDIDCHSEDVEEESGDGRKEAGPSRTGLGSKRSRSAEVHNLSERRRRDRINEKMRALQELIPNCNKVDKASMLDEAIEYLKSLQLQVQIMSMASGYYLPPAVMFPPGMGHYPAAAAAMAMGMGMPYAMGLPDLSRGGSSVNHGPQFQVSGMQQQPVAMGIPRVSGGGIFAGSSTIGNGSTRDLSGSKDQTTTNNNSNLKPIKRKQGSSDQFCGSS

B1: HB2 mut5 (PBE-box) (dsDNA)
DNA 1: GGGTCAGATCCACGTGAAGTTCCCATGCTTTCCATGC
DNA 2: GCATGGAAAGCATGGGAACTTCACGTGGATCTGACCC
B2: PIL1b mut2 (1st G-box) (dsDNA)
DNA 1: ACGCGGCATTCACGGGAAGTGCACGTGAACTTGGCCA
DNA 2: TGGCCAAGTTCACGTGCACTTCCCGTGAATGCCGCGT
B3: PIL1b mut3 (2nd G-box) (dsDNA)
DNA 1: B2 DNA 1 with G15T, T26G
DNA 2: B2 DNA 2 with A12C, C23A
B4: RGA1 mut2 (1st G-box) (dsDNA)
DNA 1: GACCCATTAACACGGGGATCCATCACGTGCTGTCAGTTT
DNA 2: AAACTGACAGCACGTGATGGATCCCCGTGTTAATGGGTC
B5: RGA1 mut3 (2nd G-box) (dsDNA)
DNA 1: B4 DNA 1 with G15T, T28G
DNA 2: B4 DNA 2 with A12C, C25A
B6: HB2 mut4 (G-box and PBE-box) (dsDNA)
DNA 1: B1 DNA 1 with T15G
DNA 2: B1 DNA 2 with A23C
B7: HB2 mut2 (G-box) (dsDNA)
DNA 1: B1 DNA 1 with T15G, C23A
DNA 2: B1 DNA 2 with G15T, A23C
B8: PHYB WT (dsDNA)
DNA 1: ACCATTAGCCCACGTGATCTTGGGCC
DNA 2: GGCCCAAGATCACGTGGGCTAATGGT
B9: AT4G30410 (bHLH159) WT (dsDNA)
DNA 1: ATAGGAGAAGCACATGCATGCACATGCTACGAATGG
DNA 2: CCATTCGTAGCATGTGCATGCATGTGCTTCTCCTAT
B10: IBH1 WT (dsDNA)
DNA 1: AGGCCATAGCCATGTGCCTTCATGTGGTGGTTGGCC
DNA 2: GGCCAACCACCACATGAAGGCACATGGCTATGGCCT
B11: IAA2 WT (dsDNA)
DNA 1: TGAGGCCGCCCATGTGGACACGACTC
DNA 2: GAGTCGTGTCCACATGGGCGGCCTCA
B12: RGA1 WT (dsDNA)
DNA 1: B4 DNA 1 with G15T
DNA 2: B4 DNA 2 with C25A
B13: ATHB-2 (HB2) WT (dsDNA)
DNA 1: B1 DNA 1 with C23A
DNA 2: B1 DNA 2 with G15T
B14: PIL1b WT (dsDNA)
DNA 1: B2 DNA 1 with G15T
DNA 2: B2 DNA 2 with C23A

The binders below were run against T1, GST-PIF3-Flag (assay: competition; EMSA; competes similar to WT; DPI-ELISA: TBS-T (20 mM Tris-HCl pH 7.5, 180 mM NaCl, 0.1% Tween 20), 5% milk block, 2 pmol probe/well, 100 ng protein, 1 h, competitor 2/10/50 pmol; EMSA: 100). Conditions: protein: recombinant, tags: N-term GST, chain copies: 2, blunt.

Binder | binding result
B1 | binds
B2 | binds
B3 | binds
B4 | binds
B5 | binds

The binders below were run against T1, GST-PIF3-Flag (assay: competition; EMSA; no competition; DPI-ELISA: TBS-T (20 mM Tris-HCl pH 7.5, 180 mM NaCl, 0.1% Tween 20), 5% milk block, 2 pmol probe/well, 100 ng protein, 1 h, competitor 2/10/50 pmol; EMSA: 100). Conditions: protein: recombinant, tags: N-term GST, chain copies: 2, blunt.

Binder | binding result
B6 | no binding
B7 | no binding

The binders below were run against T1, GST-PIF3-Flag (assay: DPI-ELISA; DPI-ELISA: TBS-T (20 mM Tris-HCl pH 7.5, 180 mM NaCl, 0.1% Tween 20), 5% milk block, 2 pmol probe/well, 100 ng protein, 1 h, competitor 2/10/50 pmol; EMSA: 100). Conditions: protein: recombinant, tags: N-term GST, chain copies: 2, label: 5' biotin on one strand (probe), blunt.

Binder | binding result
B8 | binds
B9 | binds
B10 | binds
B11 | binds
B12 | binds

What follows are binders tested against T1, GST-PIF3-Flag (assay: EMSA; DPI-ELISA: TBS-T (20 mM Tris-HCl pH 7.5, 180 mM NaCl, 0.1% Tween 20), 5% milk block, 2 pmol probe/well, 100 ng protein, 1 h, competitor 2/10/50 pmol; EMSA: 100). Conditions: protein: recombinant, tags: N-term GST, chain copies: 2, label: 5' biotin on one strand (probe), blunt.

Binder | binding result
B13 | binds
B14 | binds
